{
  "source": "paper PMC5300155",
  "about": "“Biochemical and biophysical investigations of the interaction between human glucokinase and pro-apoptotic BAD” (PLoS ONE, 2017)",
  "molecules": {"B1": {"name": "BAD-GST: recombinant human BAD with N-terminal hexahistidine tag and C-terminal GST fusion, TEV consensus sequence between (protein)", "chain": "MFQIPEFEPSEQEDSSSAERGLGPSPAGDGPSGSGKHHRQAPGLLWDASHQQEQPTSSSHHGGAGAVEIRSRHSSYPAGTEDDEGMGEEPSPFRGRSRSAPPNLWAAQRYGRELRRMSDEFVDSFKKGLPRPKSAGTATQMRQSSSWTRVFQSWWDRNLGRGSSAPSQ", "modifications": "left off: His6, N-terminal, state not stated | GST, C-terminal, kept"}},
  "key": {"[1]": {"assay": "Analytical ultracentrifugation sedimentation velocity (oligomerization, shape)", "type": "physicochemical", "conditions": "20°C, 50,000 x g", "protocol": "(§1) Sedimentation velocity experiments were conducted with an Optima XLI Ultracentrifuge (Beckman Coulter) using a four-hole rotor with three 420 μL samples in standard double-sector Epon centerpieces equipped with sapphire windows. Absorbance and interference data were collected simultaneously. Size-exclusion purified proteins were concentrated to OD280 nm = 0.3–1.0 prior to centrifugation. For complex formation, proteins were mixed in a 1:1 molar ratio in BAD buffer (0.1 M Tris, 0.1 M KCl, 0.5 M arginine, 2.5 mM CHAPS, 5 mM TCEP, 10% glycerol, pH 8.5) and incubated on ice 30 min prior to the start of the experiment. Experiments were carried out at 20°C and 50,000 x g. Data were analyzed with Ultrascan III software using a minimum of 70 scans per sample for analysis. Van Holde-Weischet analysis was performed to obtain S20,W values."}, "Bcl-xL": {"target": "T1, Bcl-xL (Homo sapiens, UniProt Q07817, DEL45-84)", "T1 construct": "made in house", "T1 sequence (Q07817 with tags, fused parts or gaps DEL45-84)": "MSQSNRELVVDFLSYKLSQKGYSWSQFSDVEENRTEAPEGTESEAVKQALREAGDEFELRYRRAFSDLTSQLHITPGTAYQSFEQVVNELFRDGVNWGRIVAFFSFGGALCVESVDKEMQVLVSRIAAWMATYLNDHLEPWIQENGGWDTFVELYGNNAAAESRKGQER", "assay": "Isothermal titration calorimetry of BAD-GST with Bcl-xL", "type": "binding", "conditions": "ITC, 25°C; Bcl-xL (100 μM) titrated into BAD-GST (10–18 μM), 4 μL injections, BAD buffer pH 8.5; average of two independent experiments", "protocol": "Exon 1 of human bcl-xl lacking the C-terminal residues 189–233 was obtained from Stanley Korsmeyer (Addgene plasmid 8755) and site-directed mutagenesis was performed to create the Δ45–84, Δ210–233 variant. Bcl-xL was expressed and purified using a modified procedure described previously. Briefly, Bcl-xL was purified by nickel affinity chromatography and dialyzed against potassium phosphate buffer (20 mM, pH 7.4) containing NaCl (50 mM), EDTA (1 mM), and DTT (10 mM). Protein was applied to a Superdex 200 10/30 HR size-exclusion column, at a flow rate of 0.02 mL/min, to remove aggregate and oligomers prior to binding assays.\nIsothermal titration calorimetry was performed at 25°C using a MicroCal VP-ITC (GE Healthcare) instrument. Bcl-xL (100 μM) in BAD buffer (0.1 M Tris, 0.1 M KCl, 0.5 M arginine, 2.5 mM CHAPS, 5 mM TCEP, 10% glycerol, pH 8.5) was titrated into the calorimeter cell containing size-exclusion chromatography purified BAD-GST (10–18 μM) in 4 μL injections. A 21-residue phosphorylated peptide containing the BH3 domain of BAD was synthesized and purified to >95% by Peptide2.0 (pBH3 = NLWAAQRYGRELRRM(p)SDKFVD). […] Data were analyzed using Origin software."}, "[2]": {"assay": "Proteolysis and aggregation of recombinant BAD produced under native conditions", "type": "physicochemical", "protocol": "Under native conditions, cell pellet was resuspended and lysed in HEPES buffer (50 mM, pH7.6) containing NaCl (50 mM), imidazole (25 mM), glycerol (5%), and DTT (5 mM). PMSF, benzamidine, a protease inhibitor cocktail (Pierce), and BSA (0.1 mg/mL) were added to the lysis buffer in attempts to reduce protein degradation. Clarified lysate was applied to a HisTrap affinity column and following purification, purified BAD-GST was applied to a Superdex 200 10/30 HR size-exclusion column, at a flow rate of 0.02 mL/min.\nProtein samples were excised from SDS-PAGE gels and exposed to trypsin digestion prior to analysis by mass spectroscopy. MALDI-TOF was performed on a Shimadzu Axima CFP MALDI-TOF in positive ion, reflectron mode. Linear trap quadripole (LTQ) Orbitrap MS was performed on a Thermo LTQ Orbitrap Velos HPLC-nESI-LIT-Orbitrap.\n(§2) To facilitate biochemical characterization of the BAD:GCK complex, we sought a method to produce functional, recombinant human BAD. Several groups have used microbial hosts to produce BAD, however, functional characterization of the resulting protein was limited."}, "[3]": {"assay": "Circular dichroism spectroscopy (secondary structure)", "type": "physicochemical", "conditions": "far UV CD, 25°C, pH 7.8, 3–15 μM, CDPro", "protocol": "Proteins were dialyzed overnight into potassium phosphate buffer (50 mM, pH 7.8) containing KCl (50 mM), glycerol (5% v/v), and TCEP (4 mM). CD spectra were recorded on an AVIV 202 CD spectrometer at 25°C with protein concentrations ranging from 3–15 μM. Spectra were recorded from 200–260 nm in 10 mm pathlength cuvettes using a 1 nm step resolution and 3 s integration time. Three scans were recorded per sample, averaged, and baseline subtracted with appropriate buffer controls. CD signals were converted to molar ellipticity and deconvoluted using CDPro Software."}, "[4]": {"conditions": "produced in Escherichia coli; ref [30]; cited from earlier work", "source_text": "as §2"}, "human pancreatic GCK": {"target": "T2, human pancreatic GCK (Homo sapiens, UniProt P35557)", "T2 construct": "hexahistidine (N); made in house; host or cells: glucokinase auxotroph BM5340(DE3)", "T2 sequence (P35557 1-465)": "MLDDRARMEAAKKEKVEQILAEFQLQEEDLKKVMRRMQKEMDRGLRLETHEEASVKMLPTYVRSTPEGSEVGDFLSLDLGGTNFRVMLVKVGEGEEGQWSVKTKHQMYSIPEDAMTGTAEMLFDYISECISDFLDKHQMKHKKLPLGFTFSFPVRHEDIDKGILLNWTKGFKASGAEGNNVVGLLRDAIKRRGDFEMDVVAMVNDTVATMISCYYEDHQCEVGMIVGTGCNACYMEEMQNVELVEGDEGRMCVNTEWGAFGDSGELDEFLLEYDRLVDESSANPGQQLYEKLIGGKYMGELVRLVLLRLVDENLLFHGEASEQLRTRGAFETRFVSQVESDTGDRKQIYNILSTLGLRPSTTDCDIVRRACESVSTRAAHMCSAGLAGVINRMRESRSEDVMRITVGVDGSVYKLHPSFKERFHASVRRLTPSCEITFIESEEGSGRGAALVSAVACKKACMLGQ", "assay": "Analytical ultracentrifugation sedimentation velocity of equimolar mixtures with GCK", "type": "binding", "conditions": "equimolar mixture, BAD buffer pH 8.5, 20°C, 50,000 x g", "protocol": "as §1"}},
  "data": [
    {"molecule": "B1", "values": [
      {"measurement": "Molecular weight from sedimentation velocity (oligomerization state)", "setting": "[1]; predicted monomer BAD-GST 47 kDa, dimer", "value": 98, "unit": "kDa"},
      {"measurement": "Frictional ratio f/f0", "setting": "[1]; sedimentation velocity, unity = compact sphere", "value": 3.9},
      {"measurement": "Kd", "setting": "Bcl-xL", "value": 7, "unit": "nM"},
      {"measurement": "Proteolysis during recombinant production", "setting": "[2]; MALDI-TOF, protease inhibitors failed to alleviate degradation", "value": "extensive C-terminal proteolysis"},
      {"measurement": "Aggregation when produced under native conditions", "setting": "[2]; native conditions, E. coli", "value": "leads to aggregation of the protein"},
      {"measurement": "Random coil content", "setting": "[3]", "value": 30, "unit": "%"},
      {"measurement": "α-helical content", "setting": "[3]", "value": 10, "unit": "%"},
      {"measurement": "β-sheet content", "setting": "[3]", "value": 37, "unit": "%"},
      {"measurement": "Proteolysis of recombinant BAD", "setting": "[4]", "value": "highly susceptible to proteolysis"},
      {"measurement": "Complex with GCK by analytical ultracentrifugation", "setting": "human pancreatic GCK", "value": "does not reveal a higher molecular weight component indicative of complex formation"}
    ]}
  ]
}
